Measurements from PMC6614819 (Nucleic Acids Research, 2019).

Assays:
Test in all cases: SEC
TmTsaD K166A = TmTsaD K166A (Thermotoga maritima, UniProt Q9WXZ2 1-327, K166A)
TmTsaD K213A = TmTsaD K213A (Thermotoga maritima, UniProt Q9WXZ2 1-327, K213A)
TmTsaD S134A = TmTsaD S134A (Thermotoga maritima, UniProt Q9WXZ2 1-327, S134A)
TmTsaD D165A = TmTsaD D165A (Thermotoga maritima, UniProt Q9WXZ2 1-327, D165A)
TmTsaD D182A = TmTsaD D182A (Thermotoga maritima, UniProt Q9WXZ2 1-327, D182A)
[1] = molecular target: T. maritima TsaD (TmTsaD), wild type (Thermotoga maritima, UniProt Q9WXZ2 1-327)

Measured: binding result

Sequence of TmTsaD K213A (Q9WXZ2 whole entry K213A): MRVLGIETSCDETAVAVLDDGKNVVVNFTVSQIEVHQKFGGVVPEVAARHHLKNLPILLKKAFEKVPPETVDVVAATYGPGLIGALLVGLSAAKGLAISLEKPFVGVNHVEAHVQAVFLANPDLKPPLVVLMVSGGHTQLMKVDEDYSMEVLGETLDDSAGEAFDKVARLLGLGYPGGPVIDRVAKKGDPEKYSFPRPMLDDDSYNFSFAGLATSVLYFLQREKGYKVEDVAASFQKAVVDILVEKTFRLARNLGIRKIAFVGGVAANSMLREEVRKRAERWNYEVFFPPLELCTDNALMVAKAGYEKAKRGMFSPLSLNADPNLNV
Sequence of TmTsaD K166A (Q9WXZ2 whole entry K166A): as the sequence (Q9WXZ2 whole entry K213A) above, with K166A, A213K counted along it
Sequence of TmTsaD D165A (Q9WXZ2 whole entry D165A): as the sequence (Q9WXZ2 whole entry K213A) above, with D165A, A213K counted along it
Sequence of TmTsaD D182A (Q9WXZ2 whole entry D182A): as the sequence (Q9WXZ2 whole entry K213A) above, with D182A, A213K counted along it
Sequence of T. maritima TsaD (TmTsaD), wild type (Q9WXZ2 whole entry): as the sequence (Q9WXZ2 whole entry K213A) above, with A213K counted along it
Sequence of TmTsaD S134A (Q9WXZ2 whole entry S134A): as the sequence (Q9WXZ2 whole entry K213A) above, with S134A, A213K counted along it

B1: T. maritima TsaB (TmTsaB), wild type (natural protein, Thermotoga maritima)
chain: MNVLALDTSQRIRIGLRKGEDLFEISYTGEKKHAEILPVVVKKLLDELDLKVKDLDVVGVGIGPGGLTGLRVGIATVVGLVSPYDIPVAPLNSFEMTAKSCPADGVVLVARRARKGYHYCAVYLKDKGLNPLKEPSVVSDEELEEITKEFSPKIVLKDDLLISPAVLVEESERLFREKKTIHYYEIEPLYLQKSIAELNWEKKKRG
not listed: [1]
binds: all other assays above

B2: TmTsaB deletion mutant lacking the C-terminal helix and tail Leu189-Gly206 (domain or fragment, Thermotoga maritima, UniProt Q9WZX7 1-188, looked up)
chain: MNVLALDTSQRIRIGLRKGEDLFEISYTGEKKHAEILPVVVKKLLDELDLKVKDLDVVGVGIGPGGLTGLRVGIATVVGLVSPYDIPVAPLNSFEMTAKSCPADGVVLVARRARKGYHYCAVYLKDKGLNPLKEPSVVSDEELEEITKEFSPKIVLKDDLLISPAVLVEESERLFREKKTIHYYEIEP
binds: [1]
